Assay results reported in patent publication US20150118286.

Key:
[1] = system: T1, P16 peptide
T1 sequence: RRWWRRYY

[2] = system: T2, P17 peptide
T2 sequence: RRRYWYYR

[3] = system: T3, P18 peptide
T3 sequence: RRYWYWRR

Substance: Human tyrosinase
- reduction of human tyrosinase activity at 200 µM (L-dopa substrate) [1]: human tyrosinase activity was reduced by 30% for P16
- reduction of human tyrosinase activity at 200 µM (L-dopa substrate) [2]: 12% for P17
- reduction of human tyrosinase activity at 200 µM (L-dopa substrate) [3]: 25% for P18
